# From patent US20050037969A1 (ARBOR VITA, published 2005)
# Ends that are not written are not given here. * marks the point of attachment. Biotin = O=C1N[C@H]2[C@H](CS[C@H]2CCCCC(=O)*)N1
# B1: Spectrin (beta) C-terminal peptide AA32L, biotinylated (peptide)
# peptide: Biotin-SFPPCGHRENVPGQSLVSFV
# notes: Marked (S), sticky; also called Spectrin beta (S); Spectrin β
# B2: PAG C-terminal peptide AA58L, biotinylated (peptide)
# peptide: Biotin-KENDYESISDLQQGRDITRL
# notes: also called Phosphoprotein Associated with GEMs
# B3: CC CKR-1R C-terminal peptide AA41L (peptide)
# peptide: Biotin-LERVSSTSPSTGEHELSAGF
# notes: Only the last four residues are seen in the excerpts
# B4: CC CKR-2 C-terminal peptide AA42L (peptide)
# peptide: Biotin-GKGKSIGRAPEASLQDKEGA
# notes: as for B3
# B5: CC CKR-4 C-terminal peptide AA44L (peptide)
# peptide: Biotin-DTPSSSYTQSTMDHDLHDAL
# notes: as for B3
# B6: CD5 C-terminal peptide AA49L (peptide)
# peptide: Biotin-SMQPDNSSDSDYDLHGAQRL
# notes: as for B3
# B7: CDw137 (4-1BB ILA) C-terminal peptide AA21L (peptide)
# peptide: Biotin-QEEDGCSCRFPEEEEGGCEL
# modifications: cysteine pairing not given here
# notes: Marked (S), sticky peptide with high background; also called CDw137 (4-1BB ILA) (S)
# B8: CD62E C-terminal peptide AA48L (peptide)
# peptide: Biotin-SSSQSLESDGSYQKPSYIL
# notes: as for B3
# B9: CC CKR-3 C-terminal peptide AA43L (peptide)
# peptide: Biotin-LERTSSVSPSTAEPELSIVF
# notes: as for B3
# B10: CD114 (G-CSFR) C-terminal peptide AA27L (peptide)
# peptide: Biotin-LNFPLLQGIRVHGMEALGSF
# notes: as for B3
# B11: V-gated Ca2+ channel C-terminal peptide AA46L (peptide)
# peptide: Biotin-SSGGRARHSYHHPDQDHWC
# notes: Marked (S), sticky peptide with high background; also called V-gated Ca2+ channel (S)
# B12: Mannose receptor C-terminal peptide AA31L (peptide)
# peptide: Biotin-GTSDMKDLVGNIEQNEHSVI
# notes: as for B3
# Biological target: T1, GST-AF6 PDZ domain fusion protein (Homo sapiens (Human), UniProt P55196 1001-1093)
# T1 construct: also called af-6 protein; not shown: glutathione S-transferase encoded by vector pGEX-3X (Pharmacia)
# T1 sequence: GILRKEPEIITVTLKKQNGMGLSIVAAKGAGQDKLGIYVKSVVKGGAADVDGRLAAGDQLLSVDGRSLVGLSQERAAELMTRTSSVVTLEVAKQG
# Assay: A/G plate assays, Table 2 matrix
row,Binder,binding result
1,B1,binds
2,"Biotin-QGDPALQDAGDSSRKEYFI (also called GC) [Glycophorin C C-terminal peptide AA37L, biotinylated]",binds

# Biological target: T2, GST-41.8 kD protein (KIAA0751) PDZ domain fusion protein (Mus musculus (Mouse), UniProt Q9EQZ7 682-763)
# T2 construct: also called 41 kd; hypoth; not shown: glutathione S-transferase encoded by vector pGEX-3X (Pharmacia)
# T2 sequence: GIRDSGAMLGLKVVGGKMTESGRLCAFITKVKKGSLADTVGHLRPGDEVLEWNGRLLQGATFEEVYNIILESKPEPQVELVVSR
# Assay: A/G plate assays, Table 2 matrix
row,Binder,binding result
1,"Biotin-TTNNNPNSAVNIKKIFTDV [KV1.3 C-terminal peptide AA33L, biotinylated]",binds
2,"Biotin-TSGTGHNQTRALRASESGI (also called CD97 (CD55L)) [CD97 C-terminal peptide AA14L, biotinylated]",binds
3,"Biotin-SPQPDSTDNDDYDDISAA [CD6 C-terminal peptide AA6L, biotinylated]",binds
4,"Biotin-HKAEIHAQPSDKERLTSDA (also called CD49F (Aform, alpha6)) [CD49F C-terminal peptide AA12L, biotinylated]",binds
5,"Biotin-QGDPALQDAGDSSRKEYFI (also called GC) [Glycophorin C C-terminal peptide AA37L, biotinylated]",binds
6,"Biotin-KDSRPSFVGSSSGHTSTTL (also called CDW128E (IL8RB)) [CDW128B (IL8RB) C-terminal peptide AA29.2L, biotinylated]",binds

# Biological target: T3, GST-PTN-4 PDZ domain fusion protein (Homo sapiens (Human), UniProt P29074 517-605)
# T3 construct: also called protein-tyrosine phosphatase meg1; not shown: glutathione S-transferase encoded by vector pGEX-3X (Pharmacia)
# T3 sequence: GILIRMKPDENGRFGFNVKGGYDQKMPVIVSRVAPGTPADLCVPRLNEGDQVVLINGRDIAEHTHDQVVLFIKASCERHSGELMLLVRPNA
# Assay: A/G plate assays, Table 2 matrix
row,Binder,binding result
1,B1,binds
2,"Biotin-EVICYIEKPGVETLEDSVF [CDW125 (IL5R) C-terminal peptide AA28L, biotinylated]",binds

# Biological target: T4, KIAA0807 (PDZ domain)-GST fusion protein (human, UniProt Q6P0Q8 1104-1192)
# T4 construct: also called K807; KIAA807; not shown: glutathione S-transferase encoded by vector pGEX-3X (Pharmacia)
# T4 sequence: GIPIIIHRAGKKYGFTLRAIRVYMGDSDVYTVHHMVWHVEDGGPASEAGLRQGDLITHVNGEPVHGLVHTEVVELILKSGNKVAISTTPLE
# Assay: A/G plate assays, Table 2 matrix
row,Binder,binding result
1,"Biotin-TTNNNPNSAVNIKKIFTDV [KV1.3 C-terminal peptide AA33L, biotinylated]",binds
2,"Biotin-SVFSIPTLWSPWPPSSSSQL (also called CD3η; CD3-eta) [CD3n C-terminal peptide AA4L, biotinylated]",binds
3,"Biotin-KKGTYLTDETHREVKFTSL [CD46 (Form 1) C-terminal peptide AA10L, biotinylated]",binds
4,B1,binds
5,"Biotin-KDSRPSFVGSSSGHTSTTL (also called CDW128E (IL8RB)) [CDW128B (IL8RB) C-terminal peptide AA29.2L, biotinylated]",binds
6,"Biotin-AWDDSARAAGGQGLHVTAL [LPAP C-terminal peptide AA30L, biotinylated]",binds
7,B2,binds

# Biological target: T5, GST-KIAA0303 PDZ domain fusion protein (Homo sapiens (Human), UniProt O15021 1138-1228)
# T5 construct: also called K303; not shown: glutathione S-transferase encoded by vector pGEX-3X (Pharmacia)
# T5 sequence: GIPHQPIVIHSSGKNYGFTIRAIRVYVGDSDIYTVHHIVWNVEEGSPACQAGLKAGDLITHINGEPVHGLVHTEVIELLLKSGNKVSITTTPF
# Assay: A/G plate assays, Table 2 matrix
row,Binder,binding result
1,B1,binds

# Biological target: T6, GST-PSD95 fusion protein (PDZ domains 1-3) (human, UniProt P31016 56-395 (rat entry))
# T6 construct: also called human post-synaptic density protein 95; not shown: glutathione S-transferase encoded by vector pGEX-3X (Pharmacia)
# Assay: A/G plate assays, Table 2 matrix
# T6 sequence (P31016 other isoform, or with tags, fused parts or gaps): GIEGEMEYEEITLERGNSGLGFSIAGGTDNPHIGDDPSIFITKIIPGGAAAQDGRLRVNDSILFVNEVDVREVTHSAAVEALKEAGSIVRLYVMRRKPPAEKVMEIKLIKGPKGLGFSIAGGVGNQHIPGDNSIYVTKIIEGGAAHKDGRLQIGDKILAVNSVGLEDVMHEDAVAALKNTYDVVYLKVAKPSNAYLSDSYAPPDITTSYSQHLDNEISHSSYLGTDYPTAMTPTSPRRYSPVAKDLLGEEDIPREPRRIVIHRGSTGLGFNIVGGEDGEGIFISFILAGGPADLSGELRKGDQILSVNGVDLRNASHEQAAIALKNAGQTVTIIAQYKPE
row,Binder,binding result
1,"Biotin-SVFSIPTLWSPWPPSSSSQL (also called CD3η; CD3-eta) [CD3n C-terminal peptide AA4L, biotinylated]",binds
2,B1,binds
3,"Biotin-QGDPALQDAGDSSRKEYFI (also called GC) [Glycophorin C C-terminal peptide AA37L, biotinylated]",binds
4,"Biotin-KDSRPSFVGSSSGHTSTTL (also called CDW128E (IL8RB)) [CDW128B (IL8RB) C-terminal peptide AA29.2L, biotinylated]",binds

# Biological target: T7, GST-RGS12 PDZ domain fusion protein (human, UniProt O14924 17-85)
# T7 construct: also called human regulator of G-protein signalling 12; not shown: glutathione S-transferase encoded by vector pGEX-3X (Pharmacia)
# T7 sequence: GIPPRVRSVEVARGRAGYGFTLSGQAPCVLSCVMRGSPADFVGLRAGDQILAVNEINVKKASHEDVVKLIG
# Assay: A/G plate assays, Table 2 matrix
row,Binder,binding result
1,"Biotin-TTNNNPNSAVNIKKIFTDV [KV1.3 C-terminal peptide AA33L, biotinylated]",binds
2,"Biotin-EVICYIEKPGVETLEDSVF [CDW125 (IL5R) C-terminal peptide AA28L, biotinylated]",binds

# Biological target: T2, GST-41.8 kD protein (KIAA0751) PDZ …
# Assay: G assay: biotinylated peptide on plate-bound GST-PDZ fusion, OD 450 nm; no GST-alone bar on the sheet
row,Binder,binding result
1,"Biotin-PSWRRSSLSESENATSLTTF (also called CXCR5) [BLR-1 C-terminal peptide AA45L, biotinylated]",no binding
2,"Biotin-VTSPNKHLGLVTPHKTELV [CD83 C-terminal peptide AA47L, biotinylated]",no binding
3,"Biotin-YSATYSELEDPGEMSPPIDL (also called FceRlb; FcεRβI) [FceRIb C-terminal peptide AA25L, biotinylated]",no binding
4,B3,no binding
5,B4,no binding
6,B5,no binding
7,"Biotin-ARHRVTSYTSSSVNVSSNL [CDW128A (IL8RA) C-terminal peptide AA29.1L, biotinylated]",no binding

# Biological target: T6, GST-PSD95 fusion protein (PDZ domains …)
# Assay: G assay: biotinylated peptide on plate-bound GST-PDZ fusion, OD 450 nm
row,Binder,binding result
1,"Biotin-PYGTAMEKAQLKPPATSDA (also called CD49E (alpha-4)) [CD49E C-terminal peptide AA11L, biotinylated]",no binding
2,"Biotin-PSWRRSSLSESENATSLTTF (also called CXCR5) [BLR-1 C-terminal peptide AA45L, biotinylated]",no binding
3,"Biotin-YSATYSELEDPGEMSPPIDL (also called FceRlb; FcεRβI) [FceRIb C-terminal peptide AA25L, biotinylated]",no binding
4,"Biotin-DLGNMEENKKLEENNHKTEA (also called CD166 (CD6L)) [CD166 C-terminal peptide AA20L, biotinylated]",no binding
5,B3,no binding
6,B4,no binding
7,B5,no binding
8,"Biotin-ARHRVTSYTSSSVNVSSNL [CDW128A (IL8RA) C-terminal peptide AA29.1L, biotinylated]",no binding
9,"Biotin-TSGTGHNQTRALRASESGI (also called CD97 (CD55L)) [CD97 C-terminal peptide AA14L, biotinylated]",no binding

# Biological target: T2, GST-41.8 kD protein (KIAA0751) PDZ …
# Assay: G assay: biotinylated peptide on plate-bound GST-PDZ fusion, streptavidin-HRP, OD 450 nm
row,Binder,binding result
1,"Biotin-PYGTAMEKAQLKPPATSDA (also called CD49E (alpha-4)) [CD49E C-terminal peptide AA11L, biotinylated]",binds
2,"Biotin-SVFSIPTLWSPWPPSSSSQL (also called CD3η; CD3-eta) [CD3n C-terminal peptide AA4L, biotinylated]",binds

# Biological target: T2, GST-41.8 kD protein (KIAA0751) PDZ …
# Assay: A/G assays
row,Binder,binding result
1,"Biotin-KKGTYLTDETHREVKFTSL [CD46 (Form 1) C-terminal peptide AA10L, biotinylated]",no binding
2,"Biotin-DLGNMEENKKLEENNHKTEA (also called CD166 (CD6L)) [CD166 C-terminal peptide AA20L, biotinylated]",no binding
3,B1,no binding
4,"Biotin-EVICYIEKPGVETLEDSVF [CDW125 (IL5R) C-terminal peptide AA28L, biotinylated]",no binding
5,"Biotin-QFMTADETRNLQNVDMKIGV (also called CD44 (long form)) [CD44 C-terminal peptide AA9L, biotinylated]",no binding
6,"Biotin-AWDDSARAAGGQGLHVTAL [LPAP C-terminal peptide AA30L, biotinylated]",no binding
7,B2,no binding
8,"Biotin-QATSENGHSARQHVVADTEL [CD34 C-terminal peptide AA7L, biotinylated]",no binding
9,B6,no binding
10,B7,no binding
11,"Biotin-SSKSKSSEESQTFFGLYKL (not fully specified, also called FasLigand; Fas ligand) [FasL C-terminal peptide AA23L-M, biotinylated]",no binding
12,B8,no binding
13,B9,no binding
14,B10,no binding
15,B11,no binding
16,"Biotin-ENLAPVTTFGKTNGYIA (also called CD148 (DEP-1)) [CD148 C-terminal peptide AA19L, biotinylated]",no binding
17,"Biotin-ISKATPALPTVSISSSAEV (also called AA1L-R) [Clasp-1 C-terminal peptide AA1L, biotinylated]",no binding
18,B12,no binding

# Biological target: T6, GST-PSD95 fusion protein (PDZ domains …)
# Assay: A/G assays
row,Binder,binding result
1,"Biotin-SPQPDSTDNDDYDDISAA [CD6 C-terminal peptide AA6L, biotinylated]",no binding
2,"Biotin-HKAEIHAQPSDKERLTSDA (also called CD49F (Aform, alpha6)) [CD49F C-terminal peptide AA12L, biotinylated]",no binding
3,"Biotin-EVICYIEKPGVETLEDSVF [CDW125 (IL5R) C-terminal peptide AA28L, biotinylated]",no binding
4,"Biotin-QFMTADETRNLQNVDMKIGV (also called CD44 (long form)) [CD44 C-terminal peptide AA9L, biotinylated]",no binding
5,"Biotin-AWDDSARAAGGQGLHVTAL [LPAP C-terminal peptide AA30L, biotinylated]",no binding
6,B2,no binding
7,B6,no binding
8,B7,no binding
9,"Biotin-SSKSKSSEESQTFFGLYKL (not fully specified, also called FasLigand; Fas ligand) [FasL C-terminal peptide AA23L-M, biotinylated]",no binding
10,B8,no binding
11,B9,no binding
12,B10,no binding
13,B11,no binding
14,"Biotin-ENLAPVTTFGKTNGYIA (also called CD148 (DEP-1)) [CD148 C-terminal peptide AA19L, biotinylated]",no binding
15,B12,no binding

# Biological target: T6, GST-PSD95 fusion protein (PDZ domains …)
# Assay: G assay: biotinylated peptide on plate-bound GST-PDZ fusion, streptavidin-HRP, OD 450 nm
row,Binder,binding result
1,"Biotin-TTNNNPNSAVNIKKIFTDV [KV1.3 C-terminal peptide AA33L, biotinylated]",binds
2,"Biotin-KKGTYLTDETHREVKFTSL [CD46 (Form 1) C-terminal peptide AA10L, biotinylated]",binds
3,"Biotin-VTSPNKHLGLVTPHKTELV [CD83 C-terminal peptide AA47L, biotinylated]",binds
